Data: PMC4315244 (The Journal of Cell Biology, 2015)

Legend:
SEC-MALS = molecular target: the molecule itself; test: SEC-MALS
Nup82-Flag-TEV-ProtA = Nup82-Flag-TEV-ProtA (S. cerevisiae, UniProt P40368 1-713); test: quantitative targeted mass spectrometry
AUC + SEC = molecular target: the molecule itself; test: AUC + SEC
Nup82 (of the …) = molecular target: Nup82 (of the Nup82–Nup159tail–Flag-Nsp1C complex) (S. cerevisiae, UniProt P40368 1-713); test: SEC-MALS
Sequence of Nup82 (of the Nup82–Nup159tail–Flag-Nsp1C complex) (P40368 whole entry, one chain of several): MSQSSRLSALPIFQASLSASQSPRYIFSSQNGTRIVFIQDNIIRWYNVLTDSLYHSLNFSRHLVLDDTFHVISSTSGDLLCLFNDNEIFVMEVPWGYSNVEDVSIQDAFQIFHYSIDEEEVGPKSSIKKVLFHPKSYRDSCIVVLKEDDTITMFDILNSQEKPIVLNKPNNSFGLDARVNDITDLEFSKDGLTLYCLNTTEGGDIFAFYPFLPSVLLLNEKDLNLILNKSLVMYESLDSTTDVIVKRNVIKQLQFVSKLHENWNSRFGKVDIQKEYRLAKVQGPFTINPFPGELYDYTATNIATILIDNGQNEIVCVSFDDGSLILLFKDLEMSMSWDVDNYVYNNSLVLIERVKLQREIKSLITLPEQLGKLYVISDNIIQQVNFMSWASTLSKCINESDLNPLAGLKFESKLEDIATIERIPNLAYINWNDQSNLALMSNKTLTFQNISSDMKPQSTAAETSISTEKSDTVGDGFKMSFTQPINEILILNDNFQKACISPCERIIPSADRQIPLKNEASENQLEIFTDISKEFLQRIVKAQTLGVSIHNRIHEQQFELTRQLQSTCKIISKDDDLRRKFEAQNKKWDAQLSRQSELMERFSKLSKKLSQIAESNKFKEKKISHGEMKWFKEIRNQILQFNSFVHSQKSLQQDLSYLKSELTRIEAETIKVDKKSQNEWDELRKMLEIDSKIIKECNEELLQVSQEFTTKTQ

Sequence of Nup82-Flag-TEV-ProtA (P40368 whole entry): as the sequence (P40368 whole entry, one chain of several) above

B1: Nup159-QT4–5-Linker-H1 (domain or fragment, S. cerevisiae, UniProt P40477 1150-1244, looked up)
chain: VKKEAVDNGLQTEPVETCNFSVQTFEGDENYLAEQCKPKQLKEYYTSAKVSNIPFVSQNSTLRLIESTFQTVEAEFTVLMENIRNMDTFFTDQSS
SEC-MALS
  stoichiometry N: 4

B2: Nup159C (domain or fragment, S. cerevisiae, UniProt P40477 1082-1460, looked up)
chain: EDINTDELPHGGEAFKAREVSASADFDVQTSLEDNYAESGIQTDLSESSKENEVQTDAIPVKHNSTQTVKKEAVDNGLQTEPVETCNFSVQTFEGDENYLAEQCKPKQLKEYYTSAKVSNIPFVSQNSTLRLIESTFQTVEAEFTVLMENIRNMDTFFTDQSSIPLVKRTVRSINNLYTWRIPEAEILLNIQNNIKCEQMQITNANIQDLKEKVTDYVRKDIAQITEDVANAKEEYLFLMHFDDASSGYVKDLSTHQFRMQKTLRQKLFDVSAKINHTEELLNILKLFTVKNKRLDDNPLVAKLAKESLARDGLLKEIKLLREQVSRLQLEEKGKKASSFDASSSITKDMKGFKVVEVGLAMNTKKQIGDFFKNLNMAK
Nup82-Flag-TEV-ProtA
  stoichiometry N: 1
AUC + SEC
  stoichiometry N: 2

B3: Nsp1C (domain or fragment)
chain: not shown
Nup82-Flag-TEV-ProtA
  stoichiometry N: 1

B4: Flag-Nsp1C (domain or fragment)
chain: not shown
Nup82 (of the …)
  stoichiometry N: 1
